Laboratory results reported in patent US20240239876A1 (GRIFOLS DIAGNOSTIC SOLUTIONS, published 2024).

B1: anti-HIV-1 antibody #B (antibody, V domains shown)
VH: EVQLVESGGGLVKPGGSLKLSCAASGFAFSSYDMSWVRQTPDKRLEWVAYITSGVGNLNYLDTVKGRFTISRDNAKNTLYLQMSSLRSEDTAMYFCLRPPSYFGSSYDAMDYWGRGTSVTVSS
VL: DIVLTQSPATLSVTPGDSVSLSCRASQSISDNLHWYRQKSHESPRLLIKYSSQSISGIPSRFSGSGSGTDFTLSINSVETEDFGMYFCQQSNSWPFTFGSGTNLELKR
notes: recombinant, expressed in CHO cells; also called mAb B
B2: anti-HIV-1 antibody #D (antibody, V domains shown)
VH: QIQLQQSGPELVKPGASVKVSCKASGYAFTSYQLYWVKQSHGKSLEWIGYIDPYNGGTGYNQKFKGKATLTVDKSSSTAYMHLNSLTSEDSAVYYCASPRWLPAGDYWGQGTSVTVSS
VL: DVVMTQTPLSLPVSLGDQASISCRSSQSLVNSDGNTFLQWLLQKPGQSPKLLIYKVSNRFSGVPDRFSGSGSGTDFTLRISRVEAEDLGVYFCSQSTHVPWTFGGGTKLEIKR
notes: recombinant, expressed in CHO cells; also called mAb D; monoclonal antibody D
B3: anti-HIV-1 antibody #A (antibody, V domains shown)
VH: EVKLVESGGGLVKPGGSLQLSCVASGFTFSSYAMSWVRQTPEKGLEWVASITSGGNTYYPDSVKGRFTISRDNAGNILYLQMSSLRSEDTAMFYCAREVLSVPFAYWGQGTLVTVST
VL: DIQMTQTTSSLSASLGDRVTINCRASQDISNYLHWYQQKPDGTVKLLIYYTSRLHSGVPSRFSGSGSGTDYSLTISNLEKEDIATYFCQQGNSFPWTFGGGTKVEIKR
notes: recombinant, expressed in CHO cells; also called mAb A

Experiments:
HIV-1 p24 protein [1] = molecular target: T1, HIV-1 p24 protein (HIV-1, UniProt P03349 135-365); assay: indirect ELISA on HIV-1 p24, OD 405 nm, antibody titrated 1:10 from 2 µg/mL (no unit beside the EC50; taken from the x axis, p24 Antibody [ng/mL])
T1 construct: also called HIV-1 p24 antigen; HIV-p24

HIV-1 p24 protein [2] = molecular target: T1, HIV-1 p24 protein; assay: BLI, antibody captured on anti-mouse Fc biosensors, 1:1 model

| Binder | EC50 (HIV-1 p24 protein [1]) [ng/mL] | Kd (HIV-1 p24 protein [2]) [nM] | koff (HIV-1 p24 protein [2]) [s⁻¹] | kon (HIV-1 p24 protein [2]) [M⁻¹ s⁻¹] |
| --- | --- | --- | --- | --- |
| B1 | 76.7 | < 0.00024 | < 1e-07 | 408000 |
| B2 | 8.41 | < 0.00052 | < 1e-07 | 194000 |
| B3 | 3.6 | 0.2 | 5.9e-05 | 241000 |
